Experimental data taken from the Immune Epitope Database (IEDB).

Tests used:
[1] = target: HLA-B*15:01; experiment: IEDB peptide-MHC binding, purified MHC/competitive/radioactivity; filed as Kd, often an IC50 or EC50 that approximates it; ≥ and ≤ were set here for values at or beyond the usual limits of such assays
[2] = target: HLA-A*02:06; experiment: as above
[3] = target: HLA-A*02:02; experiment: as above
[4] = target: HLA-A*02:03; experiment: as above
[5] = target: HLA-A*30:02; experiment: as above
[6] = target: HLA-B*07:02; experiment: IEDB peptide-MHC binding, purified MHC/direct/fluorescence; filed as Kd, often an IC50 or EC50 that approximates it; ≥ and ≤ were set here for values at or beyond the usual limits of such assays
[7] = target: HLA-A*02:01; experiment: IEDB peptide-MHC binding, purified MHC/competitive/fluorescence; ≥ and ≤ were set here for values at or beyond the usual limits of such assays; conditions: source organism: Sudan ebolavirus
[8] = target: HLA-A*01:01; experiment: IEDB peptide-MHC binding, purified MHC/competitive/radioactivity; filed as Kd, often an IC50 or EC50 that approximates it; ≥ and ≤ were set here for values at or beyond the usual limits of such assays; conditions: source organism: Dengue virus 4 Dominica/814669/1981
[9] = target: HLA-B*46:01; experiment: IEDB peptide-MHC binding, purified MHC/direct/fluorescence; filed as Kd, often an IC50 or EC50 that approximates it; ≥ and ≤ were set here for values at or beyond the usual limits of such assays; conditions: source organism: Yellow fever virus
[10] = target: HLA-A*69:01; experiment: as above; conditions: source organism: Amur virus
[11] = target: HLA-A*02:01; experiment: as above
[12] = target: HLA-A*26:01; experiment: IEDB peptide-MHC binding, purified MHC/competitive/radioactivity; filed as Kd, often an IC50 or EC50 that approximates it; ≥ and ≤ were set here for values at or beyond the usual limits of such assays
[13] = target: HLA-B*51:01; experiment: as above
[14] = target: HLA-B*53:01; experiment: as above; conditions: source organism: Dengue virus 4 Philippines/H241/1956
[15] = target: HLA-A*24:02; experiment: as above
[16] = target: HLA-B*58:01; experiment: IEDB peptide-MHC binding, purified MHC/direct/fluorescence; filed as Kd, often an IC50 or EC50 that approximates it; ≥ and ≤ were set here for values at or beyond the usual limits of such assays; conditions: source organism: Salmonella enterica subsp. enterica serovar Typhimurium
[17] = target: HLA-B*15:01; experiment: as above; conditions: source organism: Salmonella enterica subsp. enterica serovar Typhimurium
[18] = source organism: Dengue virus 3 Martinique/1243/1999
[19] = source organism: Vaccinia virus WR
[20] = source organism: Dengue virus 1 Singapore/S275/1990
[21] = source organism: Dengue virus 2 Jamaica/1409/1983
[22] = source organism: Dengue virus 2 Peru/IQT2913/1996
[23] = source organism: Mammarenavirus guanaritoense
[24] = source organism: Dengue virus 1 Brazil/97-11/1997
[25] = source organism: Vaccinia virus Copenhagen
[26] = source organism: SARS coronavirus Tor2
[27] = source organism: Salmonella enterica subsp. enterica serovar Typhimurium

Q: QQMDPEHRQL was tested. Which Kd [1, 18] did it give?
A: The Kd was 118 nM.

Q: For QVKDNIISRT, which Kd [2, 19] is on record?
A: Its Kd is ≥ 34200 nM.

Q: What about the Kd [3, 19] of the same sequence?
A: Its Kd is 17800 nM.

Q: What about the Kd [4, 19] of the same sequence?
A: Its Kd is 421 nM.

Q: Which Kd [5, 20] does the source give for RFKGEDGCWY here?
A: Its Kd is 8.19 nM.

Q: RIKSVLDII was tested. Which Kd [2, 19] did it give?
A: Its Kd is 2080 nM.

Q: And the Kd [3, 19]?
A: The Kd was 111 nM.

Q: And the Kd [4, 19]?
A: The Kd was 17.6 nM.

Q: RLPSETFPNV was tested. Which Kd [2, 19] did it give?
A: Its Kd is 0.584 nM.

Q: And the Kd [3, 19]?
A: The Kd was 173 nM.

Q: And the Kd [4, 19]?
A: The Kd was 14.1 nM.

Q: For RPKSNIVLL, which Kd ([6]; source organism: Homo sapiens) is on record?
A: Its Kd is 200 nM.

Q: With RPPIFIRRL as the sequence, how does the Kd ([6]; source organism: Human herpesvirus 4 strain B95-8) read?
A: Its Kd is 356 nM.

Q: For RSGVPPKVV, which IC50 [7] is on record?
A: The IC50 was ≥ 80200 nM.

Q: How did the Kd [2, 19] turn out when SAEDNYLAKL was run?
A: Its Kd is ≥ 69800 nM.

Q: And the Kd [3, 19]?
A: The Kd was ≥ 70000 nM.

Q: What about the Kd [4, 19] of the same sequence?
A: The Kd was ≥ 70400 nM.

Q: SARALKAYFT was tested. Which Kd [2, 19] did it give?
A: The Kd was ≥ 25700 nM.

Q: What about the Kd [3, 19] of the same sequence?
A: Its Kd is ≥ 21600 nM.

Q: What about the Kd [4, 19] of the same sequence?
A: Its Kd is 7810 nM.

Q: For SASDMQKFTI, which Kd [2, 19] is on record?
A: Its Kd is 4250 nM.

Q: What about the Kd [3, 19] of the same sequence?
A: The Kd was 10800 nM.

Q: What about the Kd [4, 19] of the same sequence?
A: The Kd was 1220 nM.

Q: Which results are given for SIGKMFESTY?
A: Kd ([5]; source organism: Dengue virus 4 Dominica/814669/1981): 37.4 nM; Kd [8]: 17000 nM

Q: For SIQDNQVAY, which Kd [9] is on record?
A: Its Kd is 19700 nM.

Q: Which results are given for SLFSLLPGV?
A: Kd [10]: ≤ 1 nM; Kd ([11]; source organism: Amur virus): ≤ 1 nM

Q: Which results are given for SVDVDIYDA?
A: Kd [2, 19]: 953 nM; Kd [3, 19]: 1200 nM; Kd [4, 19]: 11900 nM

Q: How did the Kd [12, 21] turn out when SVIEKMETL was run?
A: The Kd was 152 nM.

Q: How did the Kd [2, 19] turn out when TIAVSVYGA was run?
A: Its Kd is 98.7 nM.

Q: And the Kd [3, 19]?
A: The Kd was 25.4 nM.

Q: And the Kd [4, 19]?
A: The Kd was 9.89 nM.

Q: Which results are given for TLPELNLSL?
A: Kd [2, 19]: 802 nM; Kd [3, 19]: 135 nM; Kd [4, 19]: 22.6 nM

Q: TMKHKKATY was tested. Which Kd [1, 21] did it give?
A: Its Kd is 83.4 nM.

Q: What about the Kd [5, 21] of the same sequence?
A: Its Kd is 1200 nM.

Q: With TMRHKKATY as the sequence, how does the Kd [1, 22] read?
A: Its Kd is 442 nM.

Q: And the Kd [5, 22]?
A: The Kd was ≥ 76900 nM.

Q: How did the Kd [2, 19] turn out when TMSIYIAVA was run?
A: Its Kd is 786 nM.

Q: What about the Kd [3, 19] of the same sequence?
A: The Kd was 80.9 nM.

Q: What about the Kd [4, 19] of the same sequence?
A: Its Kd is 40.8 nM.

Q: For TNAEFTFQL, which Kd [2, 23] is on record?
A: The Kd was 3620 nM.

Q: What about the Kd [3, 23] of the same sequence?
A: Its Kd is 404 nM.

Q: What about the Kd [4, 23] of the same sequence?
A: Its Kd is 15000 nM.

Q: Which Kd ([13]; source organism: Dengue virus 4 Philippines/H241/1956) does the source give for TPVHSWEDI here?
A: Its Kd is 16000 nM.

Q: And the Kd [14]?
A: Its Kd is 2220 nM.

Q: What does the source list for TQVKELGIAI?
A: Kd [2, 19]: 3.87 nM; Kd [3, 19]: 2170 nM; Kd [4, 19]: 704 nM

Q: Which Kd [12, 20] does the source give for TSIGLLCVM here?
A: The Kd was 2450 nM.

Q: How did the IC50 [7] turn out when TTLPSQNST was run?
A: Its IC50 is ≥ 206000 nM.

Q: How did the Kd [12, 24] turn out when TVITPMMRH was run?
A: Its Kd is 1700 nM.

Q: How did the Kd [15, 21] turn out when TWAKNIQTAI was run?
A: Its Kd is 512 nM.

Q: Which Kd [15, 24] does the source give for VGMGEAAAIF here?
A: The Kd was 8640 nM.

Q: With VIIHVIEHL as the sequence, how does the Kd [1, 19] read?
A: The Kd was 1190 nM.

Q: VLIAGIILLI was tested. Which Kd [2, 25] did it give?
A: The Kd was 1020 nM.

Q: What about the Kd [3, 25] of the same sequence?
A: Its Kd is 8.84 nM.

Q: And the Kd [4, 25]?
A: Its Kd is 34.6 nM.

Q: With VLTSVDIETA as the sequence, how does the Kd [2, 19] read?
A: The Kd was 1410 nM.

Q: And the Kd [3, 19]?
A: Its Kd is 62.4 nM.

Q: What about the Kd [4, 19] of the same sequence?
A: The Kd was 421 nM.

Q: How did the IC50 [7] turn out when VMATEEPTT was run?
A: Its IC50 is ≥ 144000 nM.

Q: How did the Kd [2, 19] turn out when VMYAFTTPLI was run?
A: The Kd was 11.6 nM.

Q: And the Kd [3, 19]?
A: The Kd was 0.718 nM.

Q: What about the Kd [4, 19] of the same sequence?
A: Its Kd is 4.82 nM.

Q: Which Kd [13, 24] does the source give for VPLAGPLIA here?
A: The Kd was 14800 nM.

Q: How did the Kd ([13]; source organism: Dengue virus 3 Sri Lanka/1266/2000) turn out when VPLQWIASAI was run?
A: Its Kd is 21.7 nM.

Q: Which results are given for VQYRILPMII?
A: Kd [2, 19]: 395 nM; Kd [3, 19]: 10100 nM; Kd [4, 19]: 606 nM

Q: What does the source list for VVIVENDNVI?
A: Kd [2, 19]: 10700 nM; Kd [3, 19]: 14700 nM; Kd [4, 19]: 10200 nM

Q: With WISDNTHIYL as the sequence, how does the Kd [2, 19] read?
A: Its Kd is 1.77 nM.

Q: And the Kd [3, 19]?
A: Its Kd is 0.143 nM.

Q: What about the Kd [4, 19] of the same sequence?
A: Its Kd is 1.16 nM.

Q: Which Kd [13, 21] does the source give for WPLNEAIMAV here?
A: Its Kd is 470 nM.

Q: Which Kd [15, 18] does the source give for WYGMEIRPI here?
A: The Kd was 3020 nM.

Q: How did the Kd [2, 26] turn out when YASALVLLI was run?
A: The Kd was 8.7 nM.

Q: What about the Kd [3, 26] of the same sequence?
A: The Kd was 3.2 nM.

Q: And the Kd [4, 26]?
A: Its Kd is 4.87 nM.

Q: For YFIKHVLAF, which Kd [1, 19] is on record?
A: Its Kd is 2.53 nM.

Q: How did the Kd [15, 21] turn out when YLAGAGLLF was run?
A: The Kd was 28.5 nM.

Q: And the Kd [1, 21]?
A: The Kd was 1.86 nM.

Q: What about the Kd [12, 21] of the same sequence?
A: Its Kd is 2130 nM.

Q: YLGPTIRVW was tested. Which Kd [16] did it give?
A: Its Kd is 127 nM.

Q: And the Kd [17]?
A: Its Kd is 1220 nM.

Q: And the Kd [11, 27]?
A: The Kd was 1870 nM.

Q: And the Kd [6, 27]?
A: The Kd was 13200 nM.

Q: Which Kd [2, 19] does the source give for YLLFNHFSV here?
A: The Kd was 0.725 nM.

Q: What about the Kd [3, 19] of the same sequence?
A: The Kd was 1.24 nM.

Q: And the Kd [4, 19]?
A: The Kd was 1.59 nM.
